The nanobody polyreactivity screen of Harvey et al. (2022)

assay: yeast display, Sf9 membrane polyspecificity reagent, FACS + sequencing; frameworks hold sequencing errors
Outline: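 Genes from sorted yeast were amplified by colony PCR, read by MiSeq 2 × 250 sequencing and filtered on CDR length. These cells carried a synthetic nanobody library in Saccharomyces cerevisiae BJ5465 and were sorted by FACS into low and high (top ~1%) gates on anti-HA and streptavidin fluorescence. Polyreactivity is labelled according to the gate of origin.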

Row | Sequence | polyreactivity (PSR sort gate)
1 | QVHLLESGGGLLQAGGSLRLSCAASGLIFRPYAMGWYRQAPGKERELVAGISFRGDSTYYADSVKGRFTISRDNAKNTVYLHMNSLKPEDTAVYYWNKRKASSSGYNYWGQGTQVTVSS | low polyreactivity
2 | QVHLLESGGGLVQAGGSLRLSCAASGRTLSRYTMGWYRQAPGKERELVAAISTSGSTYYADSVKGRFTISRDNAKNTVYLPMNCLKPEDTAVYYCAATHWAYSRVPYDYWGQGTQVTVSS | high polyreactivity
3 | QVHLQESGGLVQAGGLRLSCAASGSVSYHEAMGWYRQAPAKERELVATISFGANTNYADSVKGRFTISRDNAKHTVYLHMNSLKPEDTAVYYCAAESLFDDYYGYWGQGTQVTVSS | low polyreactivity
4 | QVHLQESGSGLVQSGGSLRLTCAASGYISLGDNMGWYRQAPGKELEFVATISVGGITYYVDSVKGPFTISRDIEKNTVYLQMNSLKPEDTAVYYCASLDIYYFRYYYWGQGTQVTVSS | low polyreactivity
5 | QVHLVDSGGGLVQAGGPLRLTCPASGSTYRYTIGWYRQAPGKQRELVAAITGSAGRTYYADSVKGRFTISRDNAKNTVYLQMNSLKPEVTAVYYCNKVRPSKFWDYYYCGQGTQVTVSS | high polyreactivity
6 | QVHLVDSGGGLVQAGGSLRLSCAASGLIFVSYAMGWYRQEPGKERELVASITDSDSSTYYADSVKGRFTISRDNAKNTVYLQMNSLKPEDTAVYYCATGGRTEIWYPTLDYWGQGTQVTVSS | low polyreactivity
7 | QVHLVDSGGGLVQAGGSLRLSCAASGRIFSPYAMGWYRQAPGKERELVASINYSGGSTYADSVKGRFTISRDNAKNTVYLQMNSLKPEDTAVYYCAAEDIGRYYRLDYWGQGTQVSVSS | low polyreactivity
8 | QVHLVDSGGGLVQAGGSLRLSCAASGRTFGRNAMGWYRQAPGKERELVAAISLRGGRTYYADSVKGRFTISRDNAKNTVYLQMNSLKPEDTAVYYCAAYGYRDYYFWGQGTQVTVSS | high polyreactivity
9 | QVHLVDSGGGLVQAGGSLRLSCAASGRTFYSYAMGWYRQAPGKERELVAAINSGGDTYYADSVKGRFTISRDNAKNSVYLQMNSLKPEDTAVYYCAADYYWEMDSWGQGTQVTVSS | low polyreactivity
10 | QVHLVDSGGGLVQAGGSLRLSCAASGRTFYYYAMGWYRQAHGKERELVATISRTGTTNYADSVKGRFTISRDNAKNTVYLQMNSLKPEDTAVYYCAAERATPWPKNDYWGQGTQVTVSS | high polyreactivity
11 | QVHLVDSGGGLVQAGGSLRLSCAASGSIISVYFMEWYRQAPGKERELVASITSGASTNYADSVKGRFTISRDNAKNTVYLQINSLKPEDTAVYYCCARDWYDGFYYWGQGTQVTVSS | low polyreactivity
12 | QVHLVDSGGGLVQAGGSLRLSCAASGSTFDYNAMGWYRQAPGQESELVAAISWRGGGTYYADSVKGRFTISRDNAKTTVYLQMNSLKPEDTAVYYCAASAYKGTGAEFDYWRQGTQVTVSS | low polyreactivity
13 | QVHLVDSGGGLVQARGSLRLSCAASGLTFRYYTMAWYRQAPGKERELVAAISSSGGSTYYADSVKGRFTISRDNAKNTVYLQMNSLKPEDTAVYYCADSASLRHVYWGQGTQVTVSS | high polyreactivity
14 | QVHLVDSGVGLDQAGGILRLSCAASGSTFGFYALGWYRQSPGKERELVAAINSTGGSTYYADSVKGRFTISRDNAKNTVYLQMNSLKPEDTAVYYCNVDLYSLYDWGQGTQVTVSS | high polyreactivity
15 | QVHLVDSGVGLVQAGGSLRLSCAASGYTFVPYAMGWYRQAPGKERELVAAISSSGGSTYYADAVKGRFTISRDNAKNTVYLQMNSRKPEDSAVYYWAADYRTGQFYAGFDYWGQGTQVTVSS | high polyreactivity
16 | QVHLVESAVGLVQAGGSLRLSCAASASTFPSYAMGWYRQAPGKERELVAAINSGGGTNYADSVKGRFTISRDNAKNTVYLQMNSLKPEDTAVYYCAKSRYDYTKTEGGYWGQGTQVTVSS | low polyreactivity
17 | QVHLVESGGALVQAGGSLRLSCAASAYTFSYYAMGWYRQAPGKEMELVAAITSTGSTYYADSVKGRFTISRDNAKNTVYLQMNSLKPEDTAVYYCNVDDATVGPVDYWGQGTQVTVSS | low polyreactivity
